US20220064300A1

Tests used:
[1] = molecular target: Murine FcγRIIB extracellular domain (mouse) (UniProt P08101); assay: SPR, binding at equilibrium, antibody injected at 37 °C over murine FcγRIIB extracellular domain amine-coupled to a CM5 chip, reference channel mouse CD200
[2] = molecular target: Murine FcγRIIB extracellular domain (mouse) (UniProt P08101); assay: SPR, dissociation constant from binding at equilibrium on immobilized murine FcγRIIB extracellular domain, 37 °C

Sequence of UniProt P08101 (P08101 30-210): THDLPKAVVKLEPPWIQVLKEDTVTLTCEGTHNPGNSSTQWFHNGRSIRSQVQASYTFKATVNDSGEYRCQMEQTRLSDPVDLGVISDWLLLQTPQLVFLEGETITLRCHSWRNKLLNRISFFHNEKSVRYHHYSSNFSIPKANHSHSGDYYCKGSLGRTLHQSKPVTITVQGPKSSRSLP

Kd [1]	Kd [2]	Substance
1.07 µM	1.07 µM	JJ316+50 (JJ316 extended in the hinge with a 50 amino acid insertion from murine CD43) (antibody)
8.51 µM	8.51 µM	chimeric Nivolumab in an extended form containing the 50-residue extension (antibody)
3.02 µM	3.02 µM	JJ316 (anti-rat CD28 antibody, superagonistic; BD Biosciences cat #554992)
